Data on five molecules can be found in article PMC5678078 (2017).

Assay [1] concerns the target T1, recombinant matriptase protease domain with an N-terminal thioredoxin tag (Trx-MTX PD) (human) (UniProt Q9Y5Y6).
T1 sequence: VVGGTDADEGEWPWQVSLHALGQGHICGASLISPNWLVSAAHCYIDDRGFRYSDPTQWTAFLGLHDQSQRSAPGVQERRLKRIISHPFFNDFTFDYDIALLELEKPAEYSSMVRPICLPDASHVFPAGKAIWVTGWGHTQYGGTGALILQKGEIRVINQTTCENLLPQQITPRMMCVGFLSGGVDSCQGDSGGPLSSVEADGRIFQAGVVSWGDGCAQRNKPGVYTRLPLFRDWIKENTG

The target of assay [2] is T1, recombinant matriptase protease domain with an N-terminal thioredoxin tag (Trx-MTX PD) (human). The assay can be described thus: SPR; BIAcore; Trx-MTX PD amine-coupled to a CM5 chip; GST fusion proteins as analytes at 30 µl/min, 120 sec association, 180 sec dissociation; 10 mM HEPES, 150 mM NaCl, pH 7.4; KD by affinity analysis (BIAevaluation), called estimated.
Assay [3] addresses T2, recombinant matriptase protease domain with an N-terminal thioredoxin tag (Trx-MTX PD) (human, UniProt Q9Y5Y6 615-854).
T2 chain: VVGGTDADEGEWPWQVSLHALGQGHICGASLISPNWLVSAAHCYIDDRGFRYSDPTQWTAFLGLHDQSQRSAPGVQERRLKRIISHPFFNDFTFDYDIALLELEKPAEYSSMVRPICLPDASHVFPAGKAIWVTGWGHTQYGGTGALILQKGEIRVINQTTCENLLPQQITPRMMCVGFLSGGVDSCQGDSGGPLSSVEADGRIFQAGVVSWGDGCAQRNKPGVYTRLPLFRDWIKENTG
The assay can be described thus: SPR. A general note: Surface plasmon resonance follows binding to a sensor surface in real time, without labels.

“recombinant HAI-2 KD1-deleted mutant (rHAI-2ΔKD1) from the baculovirus expression system (from UniProt O43291 28-197) (domain or fragment)”: in assay [1], the inhibition of the in vitro proteolytic activity of Trx-MTX PD (100 nM) on Boc-Gln-Ala-Arg-AMC by rHAI-2ΔKD1 (500 nM) turned out to be 80%.
As to “recombinant HAI-2 KD2-deleted mutant (rHAI-2ΔKD2) from the baculovirus expression system (from UniProt O43291 28-197) (domain or fragment)”, the inhibition of the in vitro proteolytic activity of Trx-MTX PD (100 nM) on Boc-Gln-Ala-Arg-AMC by rHAI-2ΔKD2 (500 nM) in assay [1] is 99%.

B1: recombinant HAI-2 wild type (rHAI-2 WT) from the baculovirus expression system (domain or fragment)
chain: ADRERSIHDFCLVSKVVGRCRASMPRWWYNVTDGSCQLFVYGGCDGNSNNYLTKEECLKKCATVTENATGDLATSRNAADSSVPSAPRRQDSEDHSSDMFNYEEYCTANAVTGPCRASFPRWYFDVERNSCNNFIYGGCRGNKNSYRSEEACMLRCFRQQENPPLPLGSK
As for B1, the inhibition of the in vitro proteolytic activity of Trx-MTX PD (100 nM) on Boc-Gln-Ala-Arg-AMC by rHAI-2 WT (500 nM) in assay [1] turned out to be 99%.

B2: GST fusion protein of HAI-2 Kunitz domain 2 (GST-KD2) (domain or fragment)
chain: CTANAVTGPCRASFPRWYFDVERNSCNNFIYGGCRGNKNSYRSEEACMLRC
Broadly, the Kd is the equilibrium constant for the complex coming apart. B2: the dissociation constant (Kd) in assay [2] is 10 nM; in assay [3], 35.5 nM.

B3: GST fusion protein of HAI-2 Kunitz domain 1 (GST-KD1) (domain or fragment)
chain: CLVSKVVGRCRASMPRWWYNVTDGSCQLFVYGGCDGNSNNYLTKEECLKKC
For the molecule B3, the dissociation constant (Kd) was 10 nM in assay [2] and 45.7 nM in assay [3].
